Molecular target: T1, recombinant human IL-1 receptor extracellular domain (human, UniProt P14778 18-336)
T1 construct: extracellular domain; also called in-house mammalian recombinant IL-receptor extracellular domain
T1 sequence (looked up): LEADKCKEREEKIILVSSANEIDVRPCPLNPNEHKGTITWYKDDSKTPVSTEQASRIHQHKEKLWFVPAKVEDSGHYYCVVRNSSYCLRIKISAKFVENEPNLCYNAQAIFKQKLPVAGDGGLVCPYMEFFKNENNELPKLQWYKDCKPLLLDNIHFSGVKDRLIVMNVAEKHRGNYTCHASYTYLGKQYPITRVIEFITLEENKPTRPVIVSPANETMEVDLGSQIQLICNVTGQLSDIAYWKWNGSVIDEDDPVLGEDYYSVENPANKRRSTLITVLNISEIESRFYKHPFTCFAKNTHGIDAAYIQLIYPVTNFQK
Assay: ELISA: test proteins coated on 96-well plate, IL-1 receptor extracellular domain incubated at 37 C, detected with rabbit anti human IL-1 receptor antibodies and goat anti rabbit HRP (FIG. 5)
Method: For IL-1 receptor binding assay, recombinant human IL-1 receptor extracellular domain was first produced in house using a mammalian host. TNFRII-Fc-IL-1ra, negative control TNFRII-Fc and positive control IL-1ra (KINERET) have been coated to 96-well plate. IL-1 receptor is then incubated at 37° C. for binding. The binding is detected using rabbit anti human IL-1 receptor extracellular domain antibodies, followed by goat anti rabbit […] conjugated with HRP.

- binding result: no binding
B1: TNFRII-Fc (ENBREL) (Fc fusion, UniProt P20333 23-257, looked up)
chain: LPAQVAFTPYAPEPGSTCRLREYYDQTAQMCCSKCSPGQHAKVFCTKTSDTVCDSCEDSTYTQLWNWVPECLSCGSRCSSDQVETQACTREQNRICTCRPGWYCALSKQEGCRLCAPLRKCRPGFGVARPGTETSDVVCKPCAPGTFSNTTSSTDICRPHQICNVVAIPGNASMDAVCTSTSPTRSMAPGAVHLPQPVSTRSQHTQPTPEPSTAPSTSFLLPMGPSPPAEGSTGD
notes: Marketed product; also called marketed TNFRII-Fc (ENBREL); not shown: Fc part of the marketed product

Source: patent US7700318 (AMPROTEIN, dated 2010)
